Decrease of the light scattering signal after compression data for 3 substances are collected here from article PMC3295803.

Common to all, as to assay: pressure-induced dissociation followed by light scattering; recombinant oligomers 0.2 mg/ml in 25 mM Tris pH 7.5, 25°C, 1 to 3000 bar in steps of 270 bar and back; without or with 2-mercaptoethanol
Experiment [1] deals with AgB recombinant subunit rAgB8/1 (Echinococcus granulosus).
For experiment [2], the target named is AgB recombinant subunit rAgB8/3 (Echinococcus granulosus).
Experiment [3] has as its target AgB recombinant subunit rAgB8/2 (Echinococcus granulosus).

Consider AgB recombinant subunit rAgB8/1, for which, in experiment [1], the decrease of the light scattering signal after compression is 60%.
With AgB recombinant subunit rAgB8/3, in experiment [2], the decrease of the light scattering signal after compression came out at 30%.
In the case of AgB recombinant subunit rAgB8/2, the decrease of the light scattering signal after compression in experiment [3] stood at 30%.
